No end group written: not given here.
Columns and labels:
[1] = target: endothelial cell receptor on HAEC (human aortic endothelial cells); assay: competition, 10 µM free TKPPR against TKPPR-beads (competitor) on HAEC, static, n = 11
[2] = target: endothelial cell receptor on HAEC (human aortic endothelial cells); assay: competition, 50 µM free TKPPR against 5% BRU-114 microbubbles (competitor) on HAEC, static
[3] = target: endothelial cell receptor on HAEC (human aortic endothelial cells); assay: competition, 200 µM free TKPPR against 1% BRU-114 microbubbles (competitor) on HAEC, static
[4] = target: endothelial cell receptor on HAEC (human aortic endothelial cells); assay: competition, 50 µM free TKPPR against 1% BRU-114 microbubbles (competitor) on HAEC, static
[5] = target: endothelial cell receptor on HAEC (human aortic endothelial cells); assay: competition, free TKPPR 100 µM (head prints 100 µmol) against 1% DPPE-GTKPPR microbubbles (competitor) on HAEC, static
[6] = target: endothelial cell receptor on HAEC (human aortic endothelial cells); assay: competition, 25 µM free TKPPR against 1% BRU-114 microbubbles (competitor) on HAEC, static
[7] = target: endothelial cell receptor on HAEC (human aortic endothelial cells); assay: competition against 1% DPPE-GTKPPR microbubbles (competitor) on HAEC, static
[8] = target: endothelial cell receptor on HAEC (human aortic endothelial cells); assay: competition, free TKPPR 10 µM (head prints 10 µmol) against 5% DPPE-GTKPPR microbubbles (competitor) on HAEC, static
[9] = target: endothelial cell receptor on HAEC (human aortic endothelial cells); assay: competition, 500 µM free TKPPR against TKPPR-beads (competitor) on HAEC, static, n = 11
[10] = target: endothelial cell receptor on HAEC (human aortic endothelial cells); assay: competition, 10 µM free TKPPR against 1% BRU-292 microbubbles (competitor) on HAEC, static
[11] = target: endothelial cell receptor on HAEC (human aortic endothelial cells); assay: competition, free TKPPR 100 µM (head prints 100 µmol) against 5% DPPE-GTKPPR microbubbles (competitor) on HAEC, static
[12] = target: endothelial cell receptor on HAEC (human aortic endothelial cells); assay: competition, 50 µM free TKPPR against 1% DPPE-GTKPPR microbubbles (competitor) on HAEC, static

% Inhibition [1]: 30.8%
Bubbles Bound in presence of competitor [2]: 440 bubbles
Bubbles Bound in presence of competitor [3]: 4 bubbles
Bubbles Bound in presence of competitor [4]: 56 bubbles
Bubbles Bound in presence of competitor [5]: 5 bubbles
Bubbles Bound in presence of competitor [6]: 75 bubbles
% inhibition of bubble binding [7]: 82.7%
Bubbles Bound in presence of competitor [8]: 865 bubbles
% Inhibition [9]: 70.6%
Bubbles Bound in presence of competitor [10]: 833 bubbles
Bubbles Bound in presence of competitor [11]: 62 bubbles
Average % Inhibition [12]: 92.7%
B1: TKPPR-OH (L-threonyl-L-lysyl-L-prolyl-L-prolyl-L-arginine) (peptide)
peptide: TKPPR-OH

From patent US20110262366A1
